Source: the nanobody polyreactivity screen of Harvey et al. (2022)

Assay: yeast display, Sf9 membrane polyspecificity reagent, FACS + sequencing; frameworks hold sequencing errors
How it was run: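 A synthetic nanobody library was expressed on Saccharomyces cerevisiae BJ5465 by galactose induction for 36–48 hours. The library was stained for 1 hour at 4 °C with 10% biotinylated, detergent-solubilized Sf9 membrane reagent and enriched with streptavidin microbeads before FACS. Low and high (top ~1%) gates were set on anti-HA fluorescence for expression and streptavidin fluorescence for reagent binding, and each polyreactivity label reflects the gate of origin.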

Row | Sequence | polyreactivity (PSR sort gate)
1 | QVQLVESGGGLVQAGGSLRLSCASSGLIFKKYTIGWYRQGPGKERELVASISKSGGSTYYADSVKGRFTISRDNAKNTVYLQMNSLNPEDTAVYYCNSVNHYIGFDYWGQGTQVTVSS | low polyreactivity
2 | QVQLVESGGGLVQAGGSLRLSCASSGLIFRVYNMGWYRQAPGKERELVAAITGRGGRTYYADSVKGRFTISRDNAKNTVYLQMNSLKPEDTSVYYCATGGRFQQAAYTGFNYWGQGTQVTVSS | high polyreactivity
3 | QVQLVESGGGLVQAGGSLRLSCASSGLIFWKYAMVWYRQAPGKERELVAAIRKSVGSTYYADSVKGRFTISRDNAKNTVFLQMNSLKPEDTAVYFCAAVYAGVGSQVKPDYCGQGTQVTVSS | high polyreactivity
4 | QVQLVESGGGLVQAGGSLRLSCASSGLTFWRYVMGWYRQAPGKESELVATISIGGSTNYADSVKGRFTISRDNAKNTVYLQMNSLKPEDTAVYYCAAKFRGDVFPYYYWGQGTQVTVSS | high polyreactivity
5 | QVQLVESGGGLVQAGGSLRLSCASSGPIIFAYAMGWYRQAQGKEREFVAAISDNDGSTYYADSVKGRFTISRDNAKNSVYLQMNSLKPEDTAVYYCNADLGYVYDYWGQGTQVTVSS | low polyreactivity
6 | QVQLVESGGGLVQAGGSLRLSCASSGRICGYYAMGLYRQAPGKERELVAAITSGGSTYYADSVKGRFTISRDNEKNTVYFQMKSLKPEDTAVYFCNKVTRYSPYDYWGQGTQVTVSS | high polyreactivity
7 | QVQLVESGGGLVQAGGSLRLSCASSGRIFGPNAMGWYRQAPGKERELVAAITSGGRTKYADSVKGRFTISRDNAKNTVYLQMNSLKPEDTAVYYCATTAQYYWGQGTQVTVSS | high polyreactivity
8 | QVQLVESGGGLVQAGGSLRLSCASSGRIFHVYAMGWYRQAPGKERELVADITWSGGSTYYADSVKGRFTISRDNAKNTVYLQMNSLKPEDTAVYYCAASVLYGRHYSYGYWGQGTQVTVSS | high polyreactivity
9 | QVQLVESGGGLVQAGGSLRLSCASSGRIFTWYAMGWYRQAPGKERELVATISSGGSTNYADSVKGRFTISRDNAKNTVYLHMNSKKPEDTAVYYCAARRFFYRYYYKSDYWGQGTQVTVSS | high polyreactivity
10 | QVQLVESGGGLVQAGGSLRLSCASSGRIFYPNAMGWYRQAPGIERELVAAISSRGGSTYYADSVKGRFTISRDNAKNTVYLQMNSLKPEDTAVYYCNRVYYTIGYDYWGQGTQVSVSS | high polyreactivity
11 | QVQLVESGGGLVQAGGSLRLSCASSGRISYRNAMGWYRQAPGKERELVAAISSSGDSTYYADAVKGRFTISRDNAKNTVYLQMNSLKPEDTAVYYCAARHSAVYYGYHRYYYWGQGTQVTVSS | high polyreactivity
12 | QVQLVESGGGLVQAGGSLRLSCASSGRIYVYTMGWYRQAPGKERELVATITRSGGSTYYADSVKGRFTISRDNAKNTVYLQMNSLKPEDTAVYYCNAVGRFTPYSSRREYDYWGQGTQVTVSS | low polyreactivity
13 | QVQLVESGGGLVQAGGSLRLSCASSGRTFGTNTMGWYRQAPGKERELVAAISRSGVRTYYADSVKGRFTISRDNAKNTVYLQMKSLKAEDTAVYYCATDYKVHGFDYWGQGTQVSVSS | high polyreactivity
14 | QVQLVESGGGLVQAGGSLRLSCASSGRTFPAYVMGWYREAPGKERDLVAAISRGGSTYYADSVKGRFTISRDNAKNTVYFQMNSLKPEDTAVFYCAARWSYSRYTGNDYSRLGKFYYWGQGTQVTVSS | high polyreactivity
15 | QVQLVESGGGLVQAGGSLRLSCASSGRTFRVNAMVRYRHAPGKERELFAAITYTGGSTYYADSVKGRFTISRDNAKNTVYLQMNSLKPEDTAVYYCAARITSPRASSRGFYYWGQGTQVTVSS | high polyreactivity
16 | QVQLVESGGGLVQAGGSLRLSCASSGRTFWFYTMGWYRQAPGKERELVAAISSGGSTNYADSVKGRFTISRDNAKNTVYLQMNSLKPEDTAVYYCNKPPPNRGRYDYWGQGTQVTVSS | low polyreactivity

Row | Sequence | polyreactivity (PSR sort gate)
17 | QVQLVESGGGLVQAGGSLRLSCASSGRTFYRNAMGWYRQAPGKERELVAAIRGSGSSTYYADSVKGRFTISRDNAKNSVYLQMKSLKQEDTAVYYCAADYINYNGYARYYFWGQGTQVTVSS | high polyreactivity
18 | QVQLVESGGGLVQAGGSLRLSCASSGRTFYRNAMGWYRQAPGKERELVAAITSGGSTYYADSVKGRFTISRDNAKNTVYLQMNSLKPEDNAVYYCAKRIGWVPSRSWTPAFWGQGTQVNVSS | low polyreactivity
19 | QVQLVESGGGLVQAGGSLRLSCASSGRTIGVYAMGWYRQAPGKERELVAAISWSGGTTYYADSVKGRFTISRDNAKNTVYLQMNSLKPEDTAVYYCAADSYTEVDYWGQGTQVTVSS | low polyreactivity
20 | QVQLVESGGGLVQAGGSLRLSCASSGSIFAFNTLGWYRQAPGKERELVAAINSGGSTYYADSVKGRFTISRDNAKNTVYLQMNSLKPEDTAVYYCNARSYGIVVEYDYWGQGTQVTVSS | low polyreactivity
21 | QVQLVESGGGLVQAGGSLRLSCASSGSIFDFNAMGWYRQAPGKERELVATIRYSGGSTYYADSVKGRFTISRDNAKNTVYLQMNSLKPVDTAVYYCAADPDWTHWFAYYYHYGYWGQGTQVTVSS | low polyreactivity
22 | QVQLVESGGGLVQAGGSLRLSCASSGSIFDVNAMGWYRPAPGKERELVAAISQRGTRTYYADSVKGSFTISRDNAKNTVYLQMNSLKPEDTAVYYCNRGGWRQYDSWGQGSQVTVSS | high polyreactivity
23 | QVQLVESGGGLVQAGGSLRLSCASSGSIFLSYTMGWYRKAPGKERELVAAISKRGGSSYYADSVKGRFTISRDNAKNTVYFQMNTLIPEDTAVYYFNADVRYRRRISVTNVYDYWGQGTQVTVSS | high polyreactivity
24 | QVQLVESGGGLVQAGGSLRLSCASSGSIFNTYTMGWYRQAPGKDRELVAAISSGGSTYYADSVKGRFTISRDNAKKTVYLQMNSLKPEDTAVYYCAAYGHSFQIYDYWGQGTHVTVSS | low polyreactivity
25 | QVQLVESGGGLVQAGGSLRLSCASSGSIFRFNVMGWYRQAPGKERELVAAITRGDSTNYADSVKGRFTISRDNAKNTVYLQMNSLKPEDTAVYYCNARLYVPYRYDYWGQGTQVTVSS | low polyreactivity
26 | QVQLVESGGGLVQAGGSLRLSCASSGSIFRRYAMGWYRQATGKERELVAAISSNGGSTYYADSVKGRFTISRDNAKNTVYLQLNSLKPEDTAGYYCNAQVVHYRVSSVITYTIYDYWGQGTQVTVSS | high polyreactivity
27 | QVQLVESGGGLVQAGGSLRLSCASSGSIFSYYAKGWYIQAPGKASQLVADISQSGGTTYYADSVKGRFTISRDNAKNTVYLLKNSLKPEETAVYYCAARAPSSFDTQYYYWGEGTQVTVSS | low polyreactivity
28 | QVQLVESGGGLVQAGGSLRLSCASSGSIFYTYAMGWYRQAPGKERELVAAISRSGGSTYYADSVKGRFTISRDNAKNTVYLQMNSLKPEDTAVYYCAAVSYRGRGYWGQGTQVTVSS | high polyreactivity
29 | QVQLVESGGGLVQAGGSLRLSCASSGSIINRYAMGGYRQAPGKERELVAAITQSGGRTYYADSVKGRFTISRDNAKNTVYLQMNSLKPEDTAVYYCNAVRWYLYDYWGQGTQVTVSS | high polyreactivity
30 | QVQLVESGGGLVQAGGSLRLSCASSGSTFARNAMGWYRQAPGKERELVAAISWRGGSTYYADSVKGRFTISRDNAKNTVYLQKNSLKPEDTAVYYCAADGAYWRGTGYEYWGQGTQVTVSS | high polyreactivity
31 | QVQLVESGGGLVQAGGSLRLSCASSGSTFGINAMGGYREAPGKERELVAAITFISGSTNYADSVKGRFTISRDKAKNTVNLQMNCLKPEDTAVYYCAADSVYYAGYDVDYWGQGTQVTVSS | low polyreactivity
32 | QVQLVESGGGLVQAGGSLRLSCASSGSTFGPYTMGWYTQAPGKERELVATISSGGSTYYADSVKGRFTISRDNAKYTVYLQMKSLKPEDTAVYYCAARYWSIYDYWGQGTQVTVSS | low polyreactivity
